From patent US20230257467A1 (DRAGONFLY THERAPEUTICS, published 2023)

Key:
[1] = target: T1, recombinant rhesus EGFR-His (rhesus macaque, UniProt P55245 25-645, limits assumed); test: SPR, single point mutant scFv constructs
T1 construct: also called Rhesus macaque EGFR; not shown: His tag (EGFR-His)

[2] = target: T2, recombinant human EGFR-His (human, UniProt P00533 25-645); test: SPR, single point mutant scFv constructs
T2 construct: also called epidermal growth factor receptor; ErbB-1; not shown: His tag (EGFR-His)

[3] = target: T1, recombinant rhesus EGFR-His; test: SPR, combination mutant scFv constructs
[4] = target: T2, recombinant human EGFR-His; test: SPR, combination mutant scFv constructs
[5] = target: T2, recombinant human EGFR-His; test: SPR, Biacore 8K, 37 C, TriNKET captured on anti-hFc IgG chip, EGFR-His injected, N=4; column head prints KD (nM) but the cells carry E-09
Experimental: (§1) Kinetics and affinities of EGFR binding constructs for recombinant human and rhesus EGFR were measured by SPR using a Biacore 8K instrument. Samples were captured on the anti-hFc IgG chip and a range of concentrations of human or rhesus recombinant EGFR-His was injected over captured test articles. Experiments were performed at physiological temperature of 37° C. Data were analyzed using Biacore 8K Insight Evaluation software (GE Healthcare).

[6] = target: T2, recombinant human EGFR-His; test: SPR, Biacore 8K, 37 C, TriNKET captured on anti-hFc IgG chip, EGFR-His injected, N=4
Experimental: as §1

[7] = target: T3, EGFR expressed on H2172 human cancer cells (human, UniProt P00533 25-1210); test: flow cytometry on EGFR-positive H2172 cells, 4 C for 0.5 h, fluorophore-conjugated anti-human IgG secondary antibody
T3 construct: whole, on cells; also called EGFR-positive H2172 cancer cells; EGFR+ cells
Experimental: This example was designed to assess the binding affinity of the EGFR-targeting TriNKETs to EGFR expressed on cell surface. The H2172 human cancer cell line, derived from non-small cell lung carcinoma, was used. […] Cells were analyzed by flow cytometry and fold MFI over secondary-only controls reported.

Row | Kd [5] | koff [6] | kon [6] | EC50 (read off the curve) [7] | Molecule | further results
1 |  |  |  |  | PANI-L-D92R (scFv) | Kd [1]: 5.09 nM; koff [1]: 0.00096 s⁻¹; kon [1]: 189000 M⁻¹ s⁻¹; Kd [2]: 3.27 nM; koff [2]: 0.000839 s⁻¹; kon [2]: 256000 M⁻¹ s⁻¹
2 |  |  |  |  | PANI-H_S62R-L_F87Y-L_D92R (scFv, V domains shown, also called EGFR-scFv-3) VH: QVQLQESGPGLVKPSETLSLTCTVSGGSVSSGDYYWTWIRQSPGKCLEWIGHIYYSGNTNYNPRLKSRLTISIDTSKTQFSLKLSSVTAADTAIYYCVRDRVTGAFDIWGQGTMVTVSS VL: DIQMTQSPSSLSASVGDRVTITCQASQDISNYLNWYQQKPGKAPKLLIYDASNLETGVPSRFSGSGSGTDFTFTISSLQPEDIATYYCQHFRHLPLAFGCGTKVEIK | Kd [3]: 5.36 nM; koff [3]: 0.00112 s⁻¹; kon [3]: 209000 M⁻¹ s⁻¹; Kd [4]: 3.38 nM; koff [4]: 0.00099 s⁻¹; kon [4]: 293000 M⁻¹ s⁻¹
3 | 1.98 nM | 0.000988 s⁻¹ | 500000 M⁻¹ s⁻¹ | ~0.5 nM | EGFR-TriNKET-2 (bispecific antibody, human IgG1, kappa, F3' format with three polypeptides: EGFR-scFv-2 (VL-VH)-Fc, A49MI-VH-CH1-Fc and A49MI-VL-CL; also called EGFR2) DIQMTQSPSSLSASVGDRVTITCQASQDISNYLNWYQQKPGKAPKLLIYDASNLETGVPSRFSGSGSGTDFTFTISSLQPEDIATYYCQHFDHLPLAFGCGTKVEIKGGGGSGGGGSGGGGSGGGGSQVQLQESGPGLVKPSETLSLTCTVSGGSVSSGDYYWTWIRQSPGKCLEWIGHIYYSGNTNYNPRLKSRLTISIDTSKTQFSLKLSSVTAADTAIYYCVRDRVTGAFDIWGQGTMVTVSSGSDKTHTCPPCPAPELLGGPSVFLFPPKPKDTLMISRTPEVTCVVVDVSHEDPEVKFNWYVDGVEVHNAKTKPREEQYNSTYRVVSVLTVLHQDWLNGKEYKCKVSNKALPAPIEKTISKAKGQPREPRVYTLPPCRDELTKNQVSLTCLVKGFYPSDIAVEWESNGQPENNYKTTPPVLVSDGSFTLYSKLTVDKSRWQQGNVFSCSVMHEALHNHYTQKSLSLSPG heavy: EVQLVESGGGLVKPGGSLRLSCAASGFTFSSYSMNWVRQAPGKGLEWVSSISSSSSYIYYADSVKGRFTISRDNAKNSLYLQMNSLRAEDTAVYYCARGAPIGAAAGWFDPWGQGTLVTVSSASTKGPSVFPLAPSSKSTSGGTAALGCLVKDYFPEPVTVSWNSGALTSGVHTFPAVLQSSGLYSLSSVVTVPSSSLGTQTYICNVNHKPSNTKVDKKVEPKSCDKTHTCPPCPAPELLGGPSVFLFPPKPKDTLMISRTPEVTCVVVDVSHEDPEVKFNWYVDGVEVHNAKTKPREEQYNSTYRVVSVLTVLHQDWLNGKEYKCKVSNKALPAPIEKTISKAKGQPREPQVCTLPPSRDELTENQVSLTCLVKGFYPSDIAVEWESNGQPENNYKTTPPVLDSDGSFFLYSWLTVDKSRWQQGNVFSCSVMHEALHNHYTQKSLSLSPG light: DIQMTQSPSSVSASVGDRVTITCRASQGISSWLAWYQQKPGKAPKLLIYAASSLQSGVPSRFSGSGSGTDFTLTISSLQPEDFATYYCQQGVSFPRTFGGGTKVEIKRTVAAPSVFIFPPSDEQLKSGTASVVCLLNNFYPREAKVQWKVDNALQSGNSQESVTEQDSKDSTYSLSSTLTLSKADYEKHKVYACEVTHQGLSSPVTKSFNRGEC | 
4 | 3.16 nM | 0.00093 s⁻¹ | 295000 M⁻¹ s⁻¹ | ~0.9 nM | EGFR-TriNKET-3 (bispecific antibody, human IgG1, kappa, F3' format with three polypeptides: EGFR-scFv-3 (VL-VH)-Fc, A49MI-VH-CH1-Fc and A49MI-VL-CL; also called EGFR3) DIQMTQSPSSLSASVGDRVTITCQASQDISNYLNWYQQKPGKAPKLLIYDASNLETGVPSRFSGSGSGTDFTFTISSLQPEDIATYYCQHFRHLPLAFGCGTKVEIKGGGGSGGGGSGGGGSGGGGSQVQLQESGPGLVKPSETLSLTCTVSGGSVSSGDYYWTWIRQSPGKCLEWIGHIYYSGNTNYNPRLKSRLTISIDTSKTQFSLKLSSVTAADTAIYYCVRDRVTGAFDIWGQGTMVTVSSGSDKTHTCPPCPAPELLGGPSVFLFPPKPKDTLMISRTPEVTCVVVDVSHEDPEVKFNWYVDGVEVHNAKTKPREEQYNSTYRVVSVLTVLHQDWLNGKEYKCKVSNKALPAPIEKTISKAKGQPREPRVYTLPPCRDELTKNQVSLTCLVKGFYPSDIAVEWESNGQPENNYKTTPPVLVSDGSFTLYSKLTVDKSRWQQGNVFSCSVMHEALHNHYTQKSLSLSPG heavy: EVQLVESGGGLVKPGGSLRLSCAASGFTFSSYSMNWVRQAPGKGLEWVSSISSSSSYIYYADSVKGRFTISRDNAKNSLYLQMNSLRAEDTAVYYCARGAPIGAAAGWFDPWGQGTLVTVSSASTKGPSVFPLAPSSKSTSGGTAALGCLVKDYFPEPVTVSWNSGALTSGVHTFPAVLQSSGLYSLSSVVTVPSSSLGTQTYICNVNHKPSNTKVDKKVEPKSCDKTHTCPPCPAPELLGGPSVFLFPPKPKDTLMISRTPEVTCVVVDVSHEDPEVKFNWYVDGVEVHNAKTKPREEQYNSTYRVVSVLTVLHQDWLNGKEYKCKVSNKALPAPIEKTISKAKGQPREPQVCTLPPSRDELTENQVSLTCLVKGFYPSDIAVEWESNGQPENNYKTTPPVLDSDGSFFLYSWLTVDKSRWQQGNVFSCSVMHEALHNHYTQKSLSLSPG light: DIQMTQSPSSVSASVGDRVTITCRASQGISSWLAWYQQKPGKAPKLLIYAASSLQSGVPSRFSGSGSGTDFTLTISSLQPEDFATYYCQQGVSFPRTFGGGTKVEIKRTVAAPSVFIFPPSDEQLKSGTASVVCLLNNFYPREAKVQWKVDNALQSGNSQESVTEQDSKDSTYSLSSTLTLSKADYEKHKVYACEVTHQGLSSPVTKSFNRGEC | 
5 | 2.36 nM | 0.000745 s⁻¹ | 316000 M⁻¹ s⁻¹ |  | EGFR-TriNKET-4 (bispecific antibody, human IgG1, kappa, F3' format with three polypeptides: EGFR-scFv-4 (VL-VH)-Fc, A49MI-VH-CH1-Fc and A49MI-VL-CL; also called EGFR4) DIQMTQSPSSLSASVGDRVTITCQASQDISNYLNWYQQKPGKAPKLLIYDASNLETGVPSRFSGSGSGTDFTFTISSLQPEDIATYYCQHFRHLPLAFGCGTKVEIKGGGGSGGGGSGGGGSGGGGSQVQLQESGPGLVKPSETLSLTCTVSGGSVSSGDYYWTWIRQSPGKCLEWIGHIYYSGNTNYNPSLKSRLTISIDTSKTQFSLKLSSVTAADTAIYYCVRDRVTGAFDIWGQGTMVTVSSGSDKTHTCPPCPAPELLGGPSVFLFPPKPKDTLMISRTPEVTCVVVDVSHEDPEVKFNWYVDGVEVHNAKTKPREEQYNSTYRVVSVLTVLHQDWLNGKEYKCKVSNKALPAPIEKTISKAKGQPREPRVYTLPPCRDELTKNQVSLTCLVKGFYPSDIAVEWESNGQPENNYKTTPPVLVSDGSFTLYSKLTVDKSRWQQGNVFSCSVMHEALHNHYTQKSLSLSPG heavy: EVQLVESGGGLVKPGGSLRLSCAASGFTFSSYSMNWVRQAPGKGLEWVSSISSSSSYIYYADSVKGRFTISRDNAKNSLYLQMNSLRAEDTAVYYCARGAPIGAAAGWFDPWGQGTLVTVSSASTKGPSVFPLAPSSKSTSGGTAALGCLVKDYFPEPVTVSWNSGALTSGVHTFPAVLQSSGLYSLSSVVTVPSSSLGTQTYICNVNHKPSNTKVDKKVEPKSCDKTHTCPPCPAPELLGGPSVFLFPPKPKDTLMISRTPEVTCVVVDVSHEDPEVKFNWYVDGVEVHNAKTKPREEQYNSTYRVVSVLTVLHQDWLNGKEYKCKVSNKALPAPIEKTISKAKGQPREPQVCTLPPSRDELTENQVSLTCLVKGFYPSDIAVEWESNGQPENNYKTTPPVLDSDGSFFLYSWLTVDKSRWQQGNVFSCSVMHEALHNHYTQKSLSLSPG light: DIQMTQSPSSVSASVGDRVTITCRASQGISSWLAWYQQKPGKAPKLLIYAASSLQSGVPSRFSGSGSGTDFTLTISSLQPEDFATYYCQQGVSFPRTFGGGTKVEIKRTVAAPSVFIFPPSDEQLKSGTASVVCLLNNFYPREAKVQWKVDNALQSGNSQESVTEQDSKDSTYSLSSTLTLSKADYEKHKVYACEVTHQGLSSPVTKSFNRGEC | 
6 |  | 0.000967 s⁻¹ | 592000 M⁻¹ s⁻¹ | ~0.3 nM | EGFR-TriNKET-1 (bispecific antibody, also called EGFR1) scFv-Fc: DIQMTQSPSSLSASVGDRVTITCQASQDISNYLNWYQQKPGKAPKLLIYDASNLETGVPSRFSGSGSGTDFTFTISSLQPEDIATYFCQHFDHLPLAFGCGTKVEIKGGGGSGGGGSGGGGSGGGGSQVQLQESGPGLVKPSETLSLTCTVSGGSVSSGDYYWTWIRQSPGKCLEWIGHIYYSGNTNYNPSLKSRLTISIDTSKTQFSLKLSSVTAADTAIYYCVRDRVTGAFDIWGQGTMVTVSSGSDKTHTCPPCPAPELLGGPSVFLFPPKPKDTLMISRTPEVTCVVVDVSHEDPEVKFNWYVDGVEVHNAKTKPREEQYNSTYRVVSVLTVLHQDWLNGKEYKCKVSNKALPAPIEKTISKAKGQPREPRVYTLPPCRDELTKNQVSLTCLVKGFYPSDIAVEWESNGQPENNYKTTPPVLVSDGSFTLYSKLTVDKSRWQQGNVFSCSVMHEALHNHYTQKSLSLSPG heavy: EVQLVESGGGLVKPGGSLRLSCAASGFTFSSYSMNWVRQAPGKGLEWVSSISSSSSYIYYADSVKGRFTISRDNAKNSLYLQMNSLRAEDTAVYYCARGAPIGAAAGWFDPWGQGTLVTVSSASTKGPSVFPLAPSSKSTSGGTAALGCLVKDYFPEPVTVSWNSGALTSGVHTFPAVLQSSGLYSLSSVVTVPSSSLGTQTYICNVNHKPSNTKVDKKVEPKSCDKTHTCPPCPAPELLGGPSVFLFPPKPKDTLMISRTPEVTCVVVDVSHEDPEVKFNWYVDGVEVHNAKTKPREEQYNSTYRVVSVLTVLHQDWLNGKEYKCKVSNKALPAPIEKTISKAKGQPREPQVCTLPPSRDELTENQVSLTCLVKGFYPSDIAVEWESNGQPENNYKTTPPVLDSDGSFFLYSWLTVDKSRWQQGNVFSCSVMHEALHNHYTQKSLSLSPG light: DIQMTQSPSSVSASVGDRVTITCRASQGISSWLAWYQQKPGKAPKLLIYAASSLQSGVPSRFSGSGSGTDFTLTISSLQPEDFATYYCQQGVSFPRTFGGGTKVEIKRTVAAPSVFIFPPSDEQLKSGTASVVCLLNNFYPREAKVQWKVDNALQSGNSQESVTEQDSKDSTYSLSSTLTLSKADYEKHKVYACEVTHQGLSSPVTKSFNRGEC | 
